Data on 20 molecules can be found in publication PMC9082959, “Mechanism of Assembly of the Non-Covalent Spectrin Tetramerization Domain from Intrinsically Disordered Partners” (Journal of molecular biology, 2013).

T1: β16β17 (erythrocyte β-spectrin residues 1898–2083), wild type (human, UniProt P11277 1898-2083)
T1 construct: erythrocyte β-spectrin, human, residues 1898-2083 (β16 plus the incomplete 17th domain); synthetic gene (GenScript) in a modified pRSETA plasmid; source: E. coli C41(DE3), purified (Ni2+ agarose, thrombin cleavage, gel filtration)
T1 sequence (looked up): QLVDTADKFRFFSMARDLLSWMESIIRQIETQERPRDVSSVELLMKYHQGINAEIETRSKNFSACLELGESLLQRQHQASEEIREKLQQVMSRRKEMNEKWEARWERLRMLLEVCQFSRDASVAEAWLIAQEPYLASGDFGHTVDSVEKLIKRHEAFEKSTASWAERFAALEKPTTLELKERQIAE

B1: α0α1 F97A (domain or fragment, human, UniProt P02549 2-163, looked up)
chain: EQFPKETVVESSGPKVLETAEEIQERRQEVLTRYQSAKERVAERGQKLEDSYHLQVFKRDADDLGKWIMEKVNILTDKSYEDPTNIQGKYQKHQSLEAEVQTKSRLMSELEKTREERFTMGHSAHEETKAHIEELRHLWDLLLELTLEKGDQLLRALKFQQY
notes: mutant of m1; also called F38A; source: E. coli C41(DE3), purified (Ni2+ agarose, thrombin cleavage, gel filtration)
B2: α0α1 Y94L (domain or fragment, human, UniProt P02549 2-163, looked up)
chain: B1 chain with Y34L, A37F
notes: mutant of m1; also called Y35L; source: E. coli C41(DE3), purified (Ni2+ agarose, thrombin cleavage, gel filtration)
B3: α0α1 Y94A (domain or fragment, human, UniProt P02549 2-163, looked up)
chain: B1 chain with Y34A, A37F
notes: mutant of m1; also called Y35A; source: E. coli C41(DE3), purified (Ni2+ agarose, thrombin cleavage, gel filtration)
B4: α0α1 Q88A (domain or fragment, human, UniProt P02549 2-163, looked up)
chain: B1 chain with Q28A, A37F
notes: mutant of m1; also called Q29A; source: E. coli C41(DE3), purified (Ni2+ agarose, thrombin cleavage, gel filtration)
B5: α0α1 R104A (domain or fragment, human, UniProt P02549 2-163, looked up)
chain: B1 chain with A37F, R44A
notes: mutant of m1; also called R45A; source: E. coli C41(DE3), purified (Ni2+ agarose, thrombin cleavage, gel filtration)
B6: α0α1 L91A (domain or fragment, human, UniProt P02549 2-163, looked up)
chain: B1 chain with L31A, A37F
notes: mutant of m1; also called L32A; source: E. coli C41(DE3), purified (Ni2+ agarose, thrombin cleavage, gel filtration)
B7: α0α1 V101A (domain or fragment, human, UniProt P02549 2-163, looked up)
chain: B1 chain with A37F, V41A
notes: mutant of m1; also called V42A; source: E. coli C41(DE3), purified (Ni2+ agarose, thrombin cleavage, gel filtration)
B8: α0α1 E85A (domain or fragment, human, UniProt P02549 2-163, looked up)
chain: B1 chain with E25A, A37F
notes: mutant of m1; also called E26A; source: E. coli C41(DE3), purified (Ni2+ agarose, thrombin cleavage, gel filtration)
B9: α0α1 T92A (domain or fragment, human, UniProt P02549 2-163, looked up)
chain: B1 chain with T32A, A37F
notes: mutant of m1; also called T33A; source: E. coli C41(DE3), purified (Ni2+ agarose, thrombin cleavage, gel filtration)
B10: α0α1 E99A (domain or fragment, human, UniProt P02549 2-163, looked up)
chain: B1 chain with A37F, E39A
notes: mutant of m1; also called E40A; source: E. coli C41(DE3), purified (Ni2+ agarose, thrombin cleavage, gel filtration)
B11: α0α1 R87G (domain or fragment, human, UniProt P02549 2-163, looked up)
chain: B1 chain with R27G, A37F
notes: mutant of m1; also called R28G; source: E. coli C41(DE3), purified (Ni2+ agarose, thrombin cleavage, gel filtration)
B12: α0α1 T92G (domain or fragment, human, UniProt P02549 2-163, looked up)
chain: B1 chain with T32G, A37F
notes: mutant of m1; also called T33G; source: E. coli C41(DE3), purified (Ni2+ agarose, thrombin cleavage, gel filtration)
B13: α0α1 E85G (domain or fragment, human, UniProt P02549 2-163, looked up)
chain: B1 chain with E25G, A37F
notes: mutant of m1; also called E26G; source: E. coli C41(DE3), purified (Ni2+ agarose, thrombin cleavage, gel filtration)
B14: α0α1 Q95A (domain or fragment, human, UniProt P02549 2-163, looked up)
chain: B1 chain with Q35A, A37F
notes: mutant of m1; also called Q36A; source: E. coli C41(DE3), purified (Ni2+ agarose, thrombin cleavage, gel filtration)
B15: α0α1 Q95G (domain or fragment, human, UniProt P02549 2-163, looked up)
chain: B1 chain with Q35G, A37F
notes: mutant of m1; also called Q36G; source: E. coli C41(DE3), purified (Ni2+ agarose, thrombin cleavage, gel filtration)
B16: α0α1 E99G (domain or fragment, human, UniProt P02549 2-163, looked up)
chain: B1 chain with A37F, E39G
notes: mutant of m1; also called E40G; source: E. coli C41(DE3), purified (Ni2+ agarose, thrombin cleavage, gel filtration)
B17: α0α1 E103G (domain or fragment, human, UniProt P02549 2-163, looked up)
chain: B1 chain with A37F, E43G
notes: mutant of m1; also called E44G; source: E. coli C41(DE3), purified (Ni2+ agarose, thrombin cleavage, gel filtration)
B18: α0α1 E103A (domain or fragment, human, UniProt P02549 2-163, looked up)
chain: B1 chain with A37F, E43A
notes: mutant of m1; also called E44A; source: E. coli C41(DE3), purified (Ni2+ agarose, thrombin cleavage, gel filtration)
B19: α0α1 Q106G (domain or fragment, human, UniProt P02549 2-163, looked up)
chain: B1 chain with A37F, Q46G
notes: mutant of m1; also called Q47G; source: E. coli C41(DE3), purified (Ni2+ agarose, thrombin cleavage, gel filtration)
B20: α0α1 Q106A (domain or fragment, human, UniProt P02549 2-163, looked up)
chain: B1 chain with A37F, Q46A
notes: mutant of m1; also called Q47A; source: E. coli C41(DE3), purified (Ni2+ agarose, thrombin cleavage, gel filtration)

Substitutions are numbered along the chain they refer to. Numbers in names are those of the source.

The first experiment concerns the target T1, β16β17 (erythrocyte β-spectrin residues …). Description: ITC; β16β17 at 25–50 μM in the cell titrated with 15–20 injections to 2–2.5 eq of α0α1; one-site binding model; PBS (50 mM sodium phosphate, 150 mM NaCl, pH 7.04), 25 °C; mutants only against the wild-type partner. Particulars: both partners purified.
In turn, B1 registered a Ka of 58000 M⁻¹.

B2: the Ka amounted to 4.4e+06 M⁻¹.

Turning to B3, the Ka is 670000 M⁻¹.

With B4, the Ka came to 1e+06 M⁻¹.

The molecule B5 yielded a Ka of 6.7e+06 M⁻¹.

As to B6, the Ka was 1.3e+06 M⁻¹.

Molecule B7 gave a Ka of 100000 M⁻¹.

The target is the same in the next experiment. Described as above. The note with it: both partners purified. The source holds these as a separate data set.
B8 displayed a Ka of 1.2e+06 M⁻¹.

B9 gave a Ka of 670000 M⁻¹.

Molecule B10 had a Ka of 900000 M⁻¹.

Molecule B11 gave a Ka of 4e+06 M⁻¹.

Take B12: the Ka worked out at 3.3e+06 M⁻¹.

Molecule B13 registered a Ka of 830000 M⁻¹.

B14 registered a Ka of 2.29e+06 M⁻¹.

The molecule B15 returned a Ka of 2e+06 M⁻¹.

In turn, B16 displayed a Ka of 800000 M⁻¹.

B17 yielded a Ka of 220000 M⁻¹.

For the molecule B18, the Ka came to 810000 M⁻¹.

B19 gave a Ka of 200000 M⁻¹.

For the molecule B20, the Ka came to 1.3e+06 M⁻¹.
